The record followed here is PMC3902949.

The assay has as its target Saccharomyces cerevisiae Rad51 protein (S. cerevisiae) (UniProt P25454). The experiment in a line: SEC; 10 µM Rad51 and 20 µM Rad52 fragment incubated at room temperature for 1 h, or each protein alone; Superdex 200 10/300 GL in 20 mM Hepes-KOH pH 7.5, 0.1 M KCl, 0.5 mM EDTA, 10% glycerol, 2 mM 2-mercaptoethanol; peak fractions analysed by SDS-PAGE.
Chain of UniProt P25454 (P25454 whole entry, the tested form may be a part): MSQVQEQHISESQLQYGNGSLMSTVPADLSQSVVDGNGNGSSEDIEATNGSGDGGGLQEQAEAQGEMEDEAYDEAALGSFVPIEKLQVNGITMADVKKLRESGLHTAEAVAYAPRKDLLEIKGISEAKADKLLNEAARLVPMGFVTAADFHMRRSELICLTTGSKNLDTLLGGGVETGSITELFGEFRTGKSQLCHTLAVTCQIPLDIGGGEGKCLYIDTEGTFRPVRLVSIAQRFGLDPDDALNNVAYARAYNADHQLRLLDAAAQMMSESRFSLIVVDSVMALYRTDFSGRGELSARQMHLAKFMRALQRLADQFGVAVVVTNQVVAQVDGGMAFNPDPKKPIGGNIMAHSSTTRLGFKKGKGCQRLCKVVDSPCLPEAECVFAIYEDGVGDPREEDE

In the case of “Rad52^233–504 (C-terminal half of the Saccharomyces cerevisiae Rad52 protein) (domain or fragment)”, the stoichiometry N (commonly a count of units in the complex or per binding partner) amounted to 1.
